Experimental data published in ChEMBL document CHEMBL1250451, “Mechanistic insights into a Ca2+-dependent family of alpha-mannosidases in a human gut symbiont” (Nat Chem Biol, 2010).

Assays:
Format in all cases: protein assay
[1] = substrate: O=[N+]([O-])c1ccc(O[C@H]2O[C@H](CO)[C@@H](O)[C@H](O)[C@@H]2O)cc1; experiment: Activity of Bacteroides thetaiotaomicron GH92 alpha-mannosidase GH92 alpha-mannosidase 3963 assessed as mannose release after 16 hrs by HPLC
[2] = substrate: O=[N+]([O-])c1ccc(O[C@H]2O[C@H](CO)[C@@H](O)[C@H](O)[C@@H]2O)cc1; experiment: Ratio of Kcat to Km for Bacteroides thetaiotaomicron GH92 alpha-mannosidase GH92 alpha-mannosidase 3963 assessed as mannose release after 16 hrs by HPLC
[3] = substrate: O=[N+]([O-])c1ccc(O[C@H]2O[C@H](CO)[C@@H](O)[C@H](O)[C@@H]2O)cc1; experiment: Ratio of Kcat to Km for Bacteroides thetaiotaomicron GH92 alpha-mannosidase GH92 alpha-mannosidase 3858 assessed as mannose release after 16 hrs by HPLC
[4] = substrate: O=[N+]([O-])c1ccc(O[C@H]2O[C@H](CO)[C@@H](O)[C@H](O)[C@@H]2O)cc1; experiment: Activity of Bacteroides thetaiotaomicron GH92 alpha-mannosidase GH92 alpha-mannosidase 3858 assessed as mannose release after 16 hrs by HPLC
[5] = substrate: O=[N+]([O-])c1ccc(O[C@H]2O[C@H](CO)[C@@H](O)[C@H](O)[C@@H]2O)cc1; experiment: Ratio of Kcat to Km for Bacteroides thetaiotaomicron GH92 alpha-mannosidase GH92 alpha-mannosidase 3991 assessed as mannose release after 16 hrs by HPLC
[6] = substrate: O=[N+]([O-])c1ccc(O[C@H]2O[C@H](CO)[C@@H](O)[C@H](O)[C@@H]2O)cc1; experiment: Activity of Bacteroides thetaiotaomicron GH92 alpha-mannosidase GH92 alpha-mannosidase 3991 assessed as mannose release after 16 hrs by HPLC
[7] = substrate: O=[N+]([O-])c1ccc(O[C@H]2O[C@H](CO)[C@@H](O)[C@H](O)[C@@H]2O)cc1; experiment: Ratio of Kcat to Km for Bacteroides thetaiotaomicron GH92 alpha-mannosidase GH92 alpha-mannosidase 2948 assessed as mannose release after 16 hrs by HPLC
[8] = substrate: O=[N+]([O-])c1ccc(O[C@H]2O[C@H](CO)[C@@H](O)[C@H](O)[C@@H]2O)cc1; experiment: Activity of Bacteroides thetaiotaomicron GH92 alpha-mannosidase GH92 alpha-mannosidase 3130 assessed as mannose release after 16 hrs by HPLC
[9] = substrate: O=[N+]([O-])c1ccc(O[C@H]2O[C@H](CO)[C@@H](O)[C@H](O)[C@@H]2O)cc1; experiment: Ratio of Kcat to Km for Bacteroides thetaiotaomicron GH92 alpha-mannosidase GH92 alpha-mannosidase 3130 assessed as mannose release after 16 hrs by HPLC
[10] = substrate: O=[N+]([O-])c1ccc(O[C@H]2O[C@H](CO)[C@@H](O)[C@H](O)[C@@H]2O)cc1; experiment: (§1) Activity of Bacteroides thetaiotaomicron GH92 alpha-mannosidase GH92 alpha-mannosidase 3965 assessed as mannose release after 16 hrs by HPLC
[11] = substrate: OC[C@H]1O[C@H](O[C@H]2[C@H](O)[C@H](O)[C@@H](O)O[C@@H]2CO)[C@@H](O)[C@@H](O)[C@@H]1O; experiment: as §1
[12] = substrate: O=[N+]([O-])c1ccc(O[C@H]2O[C@H](CO)[C@@H](O)[C@H](O)[C@@H]2O)cc1; experiment: (§2) Ratio of Kcat to Km for Bacteroides thetaiotaomicron GH92 alpha-mannosidase GH92 alpha-mannosidase 3965 assessed as mannose release after 16 hrs by HPLC
[13] = substrate: OC[C@H]1O[C@H](O[C@H]2[C@H](O)[C@H](O)[C@@H](O)O[C@@H]2CO)[C@@H](O)[C@@H](O)[C@@H]1O; experiment: as §2

B1: Glycoside hydrolase family 92 (BT_3963) (Bacteroides thetaiotaomicron), Q8A0Q8 (protein)
chain: MNKMKKKVLMMTMAAVTLSAVAQQPVDYVNPIIGTNGMGHTFPGACTPFGWVQLSPDTDTIPHNVNGAYQKNAYEYCAGYQYRDKTIVGFSHTHLSGTGHSDLGDILLMPAVGDVKLNPGRADHPEEGYRSRFDHATEKATPGYYEVMLDDYGIKAQLTATQRTGVHKYTFPKGKDGHLILDLVHGIYNYDGKVLWANLRVENDTLLTGYRITNGWARTNYTYFAISLSQPIKDYGYKDKEKVLYNGFWRRFKLEKNFPEITGRKIVAYFNFETAKDPELVVKVALSAVSTEGAVKNLRAEASGKSFEQLAEAARTDWNNELDHFEIEGTPDQKAMFYTSLYHTMINPSVYMDVDGSYRGLDHNIHQAKGFTNYTIFSLWDTYRAEHPFLNLVKPERNADMVESMIKHEQQSVHGMLPIWSLMGNENWCMSGYHAVSVLADAITKGVFSNVDEALSAMVSTSTVPYYEGVADYMKLGYIPLDKSGTAASSTLEYAYDDWTIYQTALKAGNKEIADTYRKRALNYRNIYDTSIGFARPRYSDGTFKKEFDVLQTYGEGFIEGNSWNFSFHVPHDVFGMIDLMGGEKTFVQKLDELFSMHLPEKYYEHNEDITEECLVGGYVHGNEPSHHVPYLYAWTSQPWKTQYWLREILNKMYKNDINGLGGNDDCGQMSAWYLFSVMGFYPVCPGTDQYVLGAPYLPYLKLTLPNGKTLEIKAPGVSDKKRYVQSLKLNGESYDKMYITHEDILKGGVLEFKMSASPNKRRGVSVQDKPYSLTNGIN
- Km [1]: 790 µM
- kcat [1]: 0.00045 s⁻¹
- kcat/Km [2]: 0.567 M⁻¹ s⁻¹

B2: Alpha-1,2-mannosidase (BT_3858) (Bacteroides thetaiotaomicron), Q8A113 (protein)
chain: MMMNRLNIKRTVGSCLMAMAFFSCTHTDQTPTKDFVDYVNPYIGNISHLLVPTYPTVHLPNSMLRVYPERGDYTSDRVNGLPVVVTSHRGSSAFNLSPVQGEVSRPIVSYSYDLENITPYSYSVYLDEADIQVEYAPSHQAGIYHISFGTEGDNALVVNTKNGKLVAEEKGVSGYQVIDNTPTKIYLYLETSQLPLRKGVLADGKVDMESKEGSAIALYYGSEKNLNLRYGISFISAEQAKKNLQRDITTYDVKAVADAGRRIWNKTLGKIVIEGGSEDEKEIFYTSLYRTYERMINLSEDGKYYSAFDGKIHEDGGVPFYTDDWIWDTYRATHPLRILIEPQKELDMIRSYIRMAEQSDRRWMPTFPEVTGDSHRMNGNHAVAVIWDAYCKGLKDFDLEAAYEACKGAITEKTLLPWLRCPLTELDKFYQEKGFFPALNPGEEETCKAVHSFERRQAVAVMLGNCYDNWCLAQIARTLNKTDDYKKFMRMSYTYRNVYNAETGFFHPKNKDGKFIEPFDYRYSGGQGARGYYGENNGWIYRWDVQHNPADLIALMGGQASFIERLNQTFNEPLGRSKFDFYHQLPDHTGNVGQFSMANEPCLHIPYLYNYAGQPWMTQKRIRVLLNQWFRNDLMGVPGDEDGGGMTAFVVFSMMGFYPVTPGSPTYNIGSPVFQSAKMEVGDGHYFEIIAENYAPDHKYIQSATLNGTPWNKPWFSHADIQNGGRLVLQMGDKPNKKWGIASDAVPPSSESLPE
- kcat/Km [3]: 1.57 M⁻¹ s⁻¹
- Km [4]: 270 µM
- kcat [4]: 0.000417 s⁻¹

B3: Alpha-1,2-mannosidase (BT_3991) (Bacteroides thetaiotaomicron), Q8A0N0 (protein)
chain: MKLKTLLIGCFGGFIMLNSCTESPSVKDYSAYVNPFIGTGGHGHTFPGAVVPHGMIQPSPDTRIDGWDACSGYYYDDNTINGFSHTHVSGTGCCDYGDVLLMPTVGKPQYLTTDPESQKLAYASAFSHENETAEPGYYSVFLDTYQVKAEITATKRGAIHRYTFPESTESGFIIDLDYSLQRQTNYEMEIEVISDTEICGHKKTTYWAFDQYINFYAKFSKPFAYTLITDSVTMDNGKRLPVCKAVLHFNTKKDEEVLVKVGVSAVDIAGARKNVESEIPEWDFDKVRKDARTAWNNYLSKIDITTSDKEDKTIFYTALYHTAISPNLFTDADGRYLGMDLEVHQGDTINPLYTVFSLWDTFRALHPLMTIIDPNLNNQFINSLIRKHQEGGIYPMWDLASNYTGTMIGYHAVPVIVDAYMKGYRNFDAHEAYKASLRAAEYDTTGIKCPDLVLPHLMPKAKYYKNAIGYIPCDRENESVAKALEYAYDDWCISIFAEAMNDFENKAKYERFAKAYEFYFDKSTRFMRGLDSNGEWRTPFNPRASTHRSDDYCEGTAWQWTWFVPHDVEGLVKLMGGEDAFVEKLDSLFTVDSSLDGETTSADISGLIGQYAHGNEPSHHVIHLYNYVNRPWRTQELVDSVYRSQYANNVDGLSGNEDCGQMSAWYILNSMGFYQVCPGKPVYSIGRPAFDKAVINLPGEKTFSIVAKNNSKSNKYIESVLLNGKPLDTPFFGHQDIVAGGVMEIRMTDHPTQWGVRQ
- kcat/Km [5]: 0.917 M⁻¹ s⁻¹
- Km [6]: 2700 µM
- kcat [6]: 0.0025 s⁻¹

B4: Alpha-1,2-mannosidase (BT_2948) (Bacteroides thetaiotaomicron), Q8A3K6 (protein)
chain: MKMKLLILAVLPFLTPINMNSQEEKASWVQYVNPLIGTEVWQSGVAVAGHEDPSGYTFPGVTEPFGMTEWTAHTLESKHAGTLHHRVPYWYKHNYISGFMGTHYPSGAVMFDYGAVELMPVVGQLKCRPEERSSSFTHITEKSKPHFYEVMLDDYQVKAQLSATKTSAILQFTYPQSDSAYVVVDAMPSMFTAGAPGYIHIDPVRKEISGKSIQSARGYRETGYFVVRFDKDFDSFGTFNLNNDYPEVIEEKYLFTQKEGKWVNGLKGIYTQDSKGVGHLRSEKIDPVIDFDWDWYKPADDFSFNDYQVTWSGKLKAPSTGEYTLGIQADDGARLYINGELLIDDWKSHSFSYQPTQKKISLEAGKMYDIKLEYYQHEWSSRIKLSWIRPDKKSSTSLLTGNRHLESSTKIGGYIRFKTGKNEVIKAIVGTSFISVEQARINLEREIGAKSMETISAQTEALWNKELSVIDLPGATEQDKIVFYTALYHSFLLPRSLSEDGKYRSPFDGKVHKGISFTDYSIWDTFRATHPLFVLLKPDFAGDLITGLLHAYDEGGWLPKWPNPGYTNCMMGTHSDAIIADAYVKGVRNFDVEKAKKAVLKNAYEKGNHIAWGRLGIMDYERLGYVPVDKYGESVARTMEFAYDDYCLSRFFAEKGEPDLSDKLGKRSKNFRNVLDKETKMVRARKADGSWSNPEDYDISVWSGFNPKGVYNYKKNYTLFVPHDVPELIRFLGGTDSLAVFMDELFDKDIYYVGDEFVMHAPYMYNLCKRPWMTQKRIYDIVNKYYLPTPSGLPGNDDCGQLSSWYIFSAMGFYPMCPASIEYQLGVPCLPGFVLHLPQNRTFTIKTKNFGKGNCYVRAVYLNGKPHRSSVITHSDIINGGEILFELTDKPAYNWFQ
- kcat/Km [7]: 42.7 M⁻¹ s⁻¹

B5: Alpha-1,2-mannosidase, putative (BT_3130) (Bacteroides thetaiotaomicron), Q8A325 (protein)
chain: MKKLLLSVCAFSLTLATLQAGEITKYVNPFIGTGAIDGGLSGNNYPGATSPFGMIQLSPDTSEAPNWGDASGYDYNRNTIFGFSHTRLSGTGASDLIDITLMPTSSGRTSSAFTHDEEKARPGYYQVMLKDENINAELTTTQRNGIHRYQYPAGKDAEIILDMDHSADKGSWGRRIINSQIRILNDHAVEGYRIITGWAKLRKIYFYMEFSSPILTSTLRDGGRVHENTAVINGTNLHGCFRFGQLNGKPLTCKVALSSVSMENARQNMEQEAPHWDFDRYVAAADADWEKQLGKIEVKGTEVQKEIFYTALYHTMIQPNTMSDVNGEYMAADYTTRKVANNETHYTTFSLWDTFRASHPLYTLLEPERVTDFVKSMIRQYEYYGYLPIWQLWGQDNYCMIGNHSIPVITDAILKGIPGIDMEKAYEAVYNSSVTSHPNSPFEVWEKYGFMPENIQTQSVSITLEQAFDDWCVAQLAAKLNKDADYQRFHKRSEYYRNLFHPKTKFFQSKNDKGEWIEPFDPYQYGGNGGHPFTEGNAWQYFWYVPHNIQALMELTGGTKAFEQKLDTFFTSTYKSEQMNHNASGFVGQYAHGNEPSHHVAYLYNFAGQPWKTQKYVSHILNTLYNNTSSGYAGNDDCGQMSAWYVFSAMGFYPVNPADGRYIIGSPLLDECTLKLAGNKEFRIRTIRKSPEDIYIQSVTLNGKKHKDFFITHQDIMNGGTMVFKMGKKPSGWGK
- Km [8]: 510 µM
- kcat [8]: 56.7 s⁻¹
- kcat/Km [9]: 112000 M⁻¹ s⁻¹

B6: Alpha-1,2-mannosidase (BT_3965) (Bacteroides thetaiotaomicron), Q8A0Q6 (protein)
chain: MAQTEKLTDYVNPFVGTDGYGNVYPGAQIPFGGIQISPDTDSRFYDAASGYKYNHLTLMGFSLTHLSGTGIPDLGDFLFIPGTGEMKLEPGTHEDPDQGYRSRYSHDKEWASPNYYAVELADYGVKAEMTSGVRSGMFRFTYPESDNAFIMIDMNHTLWQSCEWSNLRMINDSTITGYKLVKGWGPERHVYFTATFSKKLTGLRFVQDKKPVIYNTSRFRSSYEAWGKNLMACISFDTKAGEEVTVKTAISAVSTDGARNNMKELDGLTFNELRAKGEALWEKELGKYTLTADRKTKETFYTSAYHAALHPFIFQDSDGQFRGLDKNIEKAEGFTNYTVFSLWDTYRALHPWFNLVQQEVNADIANSMLAHYDKSVEKMLPIWSFYGNETWCMIGYHAVSVLADMIVKEVKGFDYERAYEAMKTTAMNSNYDCLPEYREMGYVPFDKEAESVSKTLEYAYDDYCIAQAAKKLGKEDDYHYFLNRALSYQTLIDPETKYMRGRDSKGDWRTPFTPVAYQGPGSVHGWGDITEGFTMQYTWYVPQDVQGYINEAGKELFRKRLDELFTVELPDDIPGAHDIQGRIGAYWHGNEPCHHVAYLYNYLKEPWKCQKWIRTIVDRFYGNTPDALSGNDDCGQMSAWYMFNCIGFYPVAPSSNIYNIGSPCAEAITVRMSNGKNIEMTADNWSPKNLYVKELYVNGKKYDKSYLTYDDIRDGVKLRFVMSGKPNYKRAVSDEAVPPSISLPEKTMKYKSSIGF
- Km [10]: 1000 µM
- kcat [10]: 0.233 s⁻¹
- Km [11]: 8000 µM
- kcat [11]: 1.48 s⁻¹
- kcat/Km [12]: 233 M⁻¹ s⁻¹
- kcat/Km [13]: 183 M⁻¹ s⁻¹
